# Source: PMC2845276 (The EMBO Journal, 2010)
# What was measured:
# [1] = target: talin1 F0 domain (murine) (UniProt P26039)
# GST-talin head = GST-talin head (mouse, UniProt P26039 1-433); assay: pull-down
# GST-talin head ΔF1 loop = GST-talin head ΔF1 loop (mouse, UniProt P26039 1-433, lacking residues 133–165); assay: pull-down
# GMP.PNP-Rap1, sequence (P62834 whole entry): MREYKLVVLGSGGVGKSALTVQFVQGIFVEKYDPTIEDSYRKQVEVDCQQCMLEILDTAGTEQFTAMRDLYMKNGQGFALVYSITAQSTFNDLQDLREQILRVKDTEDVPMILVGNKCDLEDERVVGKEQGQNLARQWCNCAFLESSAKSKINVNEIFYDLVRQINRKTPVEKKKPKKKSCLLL
Kd [1] [nM],Kd (GST-talin head) [nM],Kd (GST-talin head ΔF1 loop) [nM],Molecule
140000,–,–,GMP.PNP-Rap1 (from UniProt P62834 1-184) (natural protein)
–,124 ± 19,99 ± 20,"KLLMIIHDRREFAKFEKEKMNAKWDTGENPIYKSAVTTVVNPKYEGK (domain or fragment, UniProt P05556-1 752-798, looked up) [β1A-integrin cytoplasmic tail (recombinant model protein)]"
